Assay [1] addresses T1, Soluble 8xHis-tagged C-terminal fragment of human CD117 (HuCD117 308-524) (human, UniProt P10721 308-524).
T1 construct: C-terminal part of the extracellular region; also called C-terminal domain; not shown: 8xHis tag
The assay can be described thus: SPR (Biacore 4000), IgG4 antibody captured on protein G, soluble His-tagged fragment injected at 25, 75, 225 nM. (Surface plasmon resonance follows binding to a sensor surface in real time, without labels.)

Assay [2] has as its target T2, Soluble 8xHis-tagged N-terminal fragment of human CD117 (HuCD117 1-307) (human, UniProt P10721 26-307).
T2 construct: This range counts from the precursor start, so a signal peptide is probably cleaved in the secreted protein; also called N-terminal domain; soluble N-terminal; not shown: 8xHis tag
The experiment in a line: SPR Biacore 4000, antibody captured on protein G, His-tagged fragment analyte, 1:1 fit, N=1.

Assay [3] concerns the target N-terminal domain of human CD117, soluble (HuCD117 1-308) (human, UniProt P10721 26-308). The experiment in a line: SPR Biacore 4000, captured antibody, soluble CD117 analyte, 1:1 fit.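 Also: antibodies captured on CM5 chips via goat anti-human IgG or IgA, CD117 analyte in two-fold series 0.8–200 nM, run at pH 7.3 and 37 °C, double-referenced sensorgrams.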
Method: (§1) Biacore 4000 was used for all binding analyses. Experiments were performed at pH 7.3, 37° C. and under flow rate of 30 μL/min. Human anti-CD117 antibodies were surface captured using either polyclonal goat anti-human IgG or IgA antibodies directly immobilised onto the carboxymethyl dextran surface of CM5 sensorchips to approximately 13,000 RU using standard NHS/EDC chemistry at pH 5. The immobilised antibody surface was pre-conditioned with ten injections of human polyclonal IgG (Privigen 60s, 10 μg/mL) each followed by a regeneration cycle with 100 mM H3PO4.
(§2) A total of 18 anti-CD117 antibodies (2 μg/mL) were tested as captured ligands against four soluble mammalian CD117 receptor variants: the N-terminal domain of human CD117 (HuCD1₁₇₁₋₃₀₈), full length human CD117 (HuCD1₁₇₁₋₅₂₄), cyno CD117 (cynoCD117₁₋₅₂₀), and murine CD117 (MuCD117₁₋₅₂₇).
(§3) CD117 proteins were prepared in two-fold dilutions ranging from 0.8 to 200 nM. Anti-CD117 antibodies huAb249, huAb85, huCK6 and huhzSR1 were used as positive controls. BM4 was prepared in an IgG and IgA2 format and used as negative control. Binding affinities were calculated from sensorgrams double-referenced using reference surface and blank buffer injection data gathered within each experiment.
In assay [4] the target is T3, Cyno CD117, soluble (cynoCD117 1-520) (cynomolgus monkey, UniProt P10721 26-520 (human entry)).
T3 construct: Residues as printed
T3 chain: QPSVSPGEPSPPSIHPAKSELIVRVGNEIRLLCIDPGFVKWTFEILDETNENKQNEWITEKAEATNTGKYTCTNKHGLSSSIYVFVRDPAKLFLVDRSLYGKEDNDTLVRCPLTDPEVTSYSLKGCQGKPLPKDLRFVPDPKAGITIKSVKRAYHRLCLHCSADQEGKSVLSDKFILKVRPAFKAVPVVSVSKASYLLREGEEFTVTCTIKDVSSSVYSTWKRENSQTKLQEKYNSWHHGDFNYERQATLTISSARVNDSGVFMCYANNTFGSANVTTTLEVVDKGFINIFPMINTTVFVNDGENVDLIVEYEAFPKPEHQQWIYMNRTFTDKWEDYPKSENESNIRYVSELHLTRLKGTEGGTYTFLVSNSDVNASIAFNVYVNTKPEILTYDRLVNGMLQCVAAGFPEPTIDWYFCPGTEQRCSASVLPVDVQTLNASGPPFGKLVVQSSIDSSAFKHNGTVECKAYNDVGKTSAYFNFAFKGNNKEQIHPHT
The description is as above.
Method: as §1, §2, §3

Assay [5] has as its target T4, Full length human CD117, soluble (HuCD117 1-524) (human, UniProt P10721 26-524).
T4 construct: also called full-length protein
Described as above.
Method: as §1, §2, §3

For assay [6], the target named is T5, Murine CD117, soluble (MuCD117 1-527) (mouse, UniProt P05532 25-527).
T5 construct: Residues as printed
T5 sequence: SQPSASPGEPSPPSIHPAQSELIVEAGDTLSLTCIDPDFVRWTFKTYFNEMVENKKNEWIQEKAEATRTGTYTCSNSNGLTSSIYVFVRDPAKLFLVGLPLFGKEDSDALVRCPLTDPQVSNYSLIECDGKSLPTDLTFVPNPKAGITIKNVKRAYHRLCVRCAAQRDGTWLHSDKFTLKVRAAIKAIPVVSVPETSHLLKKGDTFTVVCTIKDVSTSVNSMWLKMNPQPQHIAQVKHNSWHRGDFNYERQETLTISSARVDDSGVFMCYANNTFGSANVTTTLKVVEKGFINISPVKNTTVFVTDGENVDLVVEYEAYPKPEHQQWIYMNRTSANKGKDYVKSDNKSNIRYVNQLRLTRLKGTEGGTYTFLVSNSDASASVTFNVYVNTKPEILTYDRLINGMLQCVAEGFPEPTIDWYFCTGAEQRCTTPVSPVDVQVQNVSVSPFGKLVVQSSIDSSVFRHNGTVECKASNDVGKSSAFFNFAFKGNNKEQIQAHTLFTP
The assay can be described thus: SPR, captured antibody, soluble CD117 analyte.
Method: as §1, §2, §3

Assay [7] concerns the target Human CD117 (c-kit), cell-surface expressed (human, UniProt P10721 26-976). The assay can be described thus: cell-based or functional assay.

The values that follow come from US20250171536A1 (CSL INNOVATION, published 2025).

T4 sequence (P10721 26-524): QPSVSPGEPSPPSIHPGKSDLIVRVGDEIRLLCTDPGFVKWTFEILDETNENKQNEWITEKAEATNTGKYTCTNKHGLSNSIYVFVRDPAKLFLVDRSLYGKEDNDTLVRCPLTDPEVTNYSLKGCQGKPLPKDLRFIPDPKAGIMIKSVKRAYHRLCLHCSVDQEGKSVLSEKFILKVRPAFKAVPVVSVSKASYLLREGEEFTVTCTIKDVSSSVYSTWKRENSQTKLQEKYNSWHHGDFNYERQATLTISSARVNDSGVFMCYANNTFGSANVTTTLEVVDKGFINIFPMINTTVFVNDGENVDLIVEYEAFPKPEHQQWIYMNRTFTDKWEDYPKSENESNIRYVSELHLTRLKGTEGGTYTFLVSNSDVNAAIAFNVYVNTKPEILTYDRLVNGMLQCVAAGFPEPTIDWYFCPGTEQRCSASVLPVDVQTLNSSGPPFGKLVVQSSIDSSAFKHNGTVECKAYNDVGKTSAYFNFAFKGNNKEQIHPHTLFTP
T2 sequence (P10721 26-307): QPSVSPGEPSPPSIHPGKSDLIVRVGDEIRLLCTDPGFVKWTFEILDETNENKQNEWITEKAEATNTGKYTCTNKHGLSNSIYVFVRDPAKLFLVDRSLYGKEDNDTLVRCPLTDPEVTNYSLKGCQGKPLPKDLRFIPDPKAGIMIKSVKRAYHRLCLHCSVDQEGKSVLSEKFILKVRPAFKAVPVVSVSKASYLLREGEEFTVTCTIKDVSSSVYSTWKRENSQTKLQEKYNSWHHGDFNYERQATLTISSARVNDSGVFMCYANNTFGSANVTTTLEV
T1 sequence (P10721 308-524): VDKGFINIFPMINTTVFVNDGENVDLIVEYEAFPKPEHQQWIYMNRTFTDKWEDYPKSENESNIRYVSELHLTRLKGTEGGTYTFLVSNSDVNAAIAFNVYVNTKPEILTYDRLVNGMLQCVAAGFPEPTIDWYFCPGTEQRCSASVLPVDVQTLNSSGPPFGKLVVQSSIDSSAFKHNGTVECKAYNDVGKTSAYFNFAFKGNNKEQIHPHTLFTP
Sequence of Human CD117 (c-kit), cell-surface expressed (P10721 26-976 limits assumed): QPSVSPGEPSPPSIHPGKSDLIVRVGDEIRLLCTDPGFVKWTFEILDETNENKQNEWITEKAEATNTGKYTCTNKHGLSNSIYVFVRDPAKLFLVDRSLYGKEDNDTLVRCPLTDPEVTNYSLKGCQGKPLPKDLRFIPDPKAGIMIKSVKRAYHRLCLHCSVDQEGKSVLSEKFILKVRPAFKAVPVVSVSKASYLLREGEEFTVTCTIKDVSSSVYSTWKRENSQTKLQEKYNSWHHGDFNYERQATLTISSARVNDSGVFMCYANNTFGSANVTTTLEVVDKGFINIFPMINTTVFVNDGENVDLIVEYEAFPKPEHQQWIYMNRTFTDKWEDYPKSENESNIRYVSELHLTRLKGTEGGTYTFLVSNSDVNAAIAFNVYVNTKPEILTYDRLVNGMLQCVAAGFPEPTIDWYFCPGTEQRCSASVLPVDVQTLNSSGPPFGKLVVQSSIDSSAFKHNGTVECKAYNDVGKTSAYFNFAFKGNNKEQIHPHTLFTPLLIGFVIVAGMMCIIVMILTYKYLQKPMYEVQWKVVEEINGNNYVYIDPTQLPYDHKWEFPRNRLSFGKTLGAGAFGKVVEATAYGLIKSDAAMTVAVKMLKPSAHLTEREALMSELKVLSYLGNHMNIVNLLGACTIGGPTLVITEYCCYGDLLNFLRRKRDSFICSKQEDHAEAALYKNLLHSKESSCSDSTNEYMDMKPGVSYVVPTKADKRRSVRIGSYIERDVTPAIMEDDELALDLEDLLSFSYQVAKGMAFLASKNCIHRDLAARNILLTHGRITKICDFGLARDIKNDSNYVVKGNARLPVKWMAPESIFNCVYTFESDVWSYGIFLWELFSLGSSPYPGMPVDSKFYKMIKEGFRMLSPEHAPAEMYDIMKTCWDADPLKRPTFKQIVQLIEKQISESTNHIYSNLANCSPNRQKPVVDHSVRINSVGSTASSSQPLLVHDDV
Sequence of N-terminal domain of human CD117, soluble (HuCD117 1-308) (P10721 26-308): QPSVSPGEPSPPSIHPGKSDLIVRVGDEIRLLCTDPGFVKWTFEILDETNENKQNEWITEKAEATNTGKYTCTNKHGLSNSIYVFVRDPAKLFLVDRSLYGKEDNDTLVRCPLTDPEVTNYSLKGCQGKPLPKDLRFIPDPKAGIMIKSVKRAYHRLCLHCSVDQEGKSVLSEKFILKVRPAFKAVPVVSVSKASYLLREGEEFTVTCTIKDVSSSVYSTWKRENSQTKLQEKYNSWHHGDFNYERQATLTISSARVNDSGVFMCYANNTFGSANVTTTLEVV

B1: hu3B3 IgG4 (hu3B3-hLG4) (antibody)
heavy: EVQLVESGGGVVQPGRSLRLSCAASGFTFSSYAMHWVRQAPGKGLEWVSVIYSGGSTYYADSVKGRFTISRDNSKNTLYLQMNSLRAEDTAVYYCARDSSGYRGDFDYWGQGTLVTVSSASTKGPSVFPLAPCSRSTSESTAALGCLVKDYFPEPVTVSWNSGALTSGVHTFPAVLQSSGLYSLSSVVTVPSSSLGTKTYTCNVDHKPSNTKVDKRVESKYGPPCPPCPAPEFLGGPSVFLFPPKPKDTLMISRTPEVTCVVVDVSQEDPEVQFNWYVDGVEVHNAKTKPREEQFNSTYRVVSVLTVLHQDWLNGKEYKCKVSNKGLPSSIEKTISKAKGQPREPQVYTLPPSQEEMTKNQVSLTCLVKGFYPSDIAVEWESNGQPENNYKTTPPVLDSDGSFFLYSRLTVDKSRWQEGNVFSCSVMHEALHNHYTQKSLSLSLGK
light: SYELTQPPSVSVSPGQTASITCSGDKVGAKYVFWYQQKPGQSPVLVVYQDNKRPSGIPERFSGSNSGNTATLTISGTQAMDEADYYCQAWDSSTALYVFGTGTKVTVLGQPKANPTVTLFPPSSEELQANKATLVCLISDFYPGAVTVAWKADGSPVKAGVETTKPSKQSNNKYAASSYLSLTPEQWKSHRSYSCQVTHEGSTVEKTVAPTECS
In the case of B1, the binding result in assay [1] is reported as “no binding (tested: 225 nM)”. For the same molecule, the Kd in assay [2] was found to be 9 nM.

B2: hu3B3 IgA2 (hu3B3-hLhA2 (P221R)) (antibody)
heavy: EVQLVESGGGVVQPGRSLRLSCAASGFTFSSYAMHWVRQAPGKGLEWVSVIYSGGSTYYADSVKGRFTISRDNSKNTLYLQMNSLRAEDTAVYYCARDSSGYRGDFDYWGQGTLVTVSSASPTSPKVFPLSLDSTPQDGNVVVACLVQGFFPQEPLSVTWSESGQNVTARNFPPSQDASGDLYTTSSQLTLPATQCPDGKSVTCHVKHYTNSSQDVTVPCRVPPPPPCCHPRLSLHRPALEDLLLGSEANLTCTLTGLRDASGATFTWTPSSGKSAVQGPPERDLCGCYSVSSVLPGCAQPWNHGETFTCTAAHPELKTPLTANITKSGNTFRPEVHLLPPPSEELALNELVTLTCLARGFSPKDVLVRWLQGSQELPREKYLTWASRQEPSQGTTTFAVTSILRVAAEDWKKGDTFSCMVGHEALPLAFTQKTIDRLAGKPTHVNVSVVMAEVDGTCY
light: SYELTQPPSVSVSPGQTASITCSGDKVGAKYVFWYQQKPGQSPVLVVYQDNKRPSGIPERFSGSNSGNTATLTISGTQAMDEADYYCQAWDSSTALYVFGTGTKVTVLGQPKANPTVTLFPPSSEELQANKATLVCLISDFYPGAVTVAWKADGSPVKAGVETTKPSKQSNNKYAASSYLSLTPEQWKSHRSYSCQVTHEGSTVEKTVAPTECS
B2: the Kd in assay [3] is 0.49 nM; in assay [4] it was 4.4 nM; in assay [5] it was 2.5 nM. For the same molecule, the binding result in assay [6] is “no binding (tested: 200 nM (highest CD117 concentration))”.

B3: 4A2 IgA2 anti-CD117 antibody (Example 8) (antibody, V domains shown)
VH: EVQLLESGGGLVQPGGSLRLSCAASGFTFSDYGMSWVRQAPGKGLEWVSAIGYGGGGKYYADSVKGRFTISRDNSKNTLYLQMNSLRAEDTAVYYCAKDTWWLAGLFDYWGQGTLVTVSS
VL: EIVLTQSPGTLSLSPGKRATLSCRASQSVSNSYLAWYQQKPGQPPKLLIYWASTRESGVPDRFSGSGSGTDFTLTISSLQAEDVAVYYCQQYYSTPLTFGGGTKVEIKR
In the case of B3, in assay [7], the “EC50 of trogocytosis (ADCT; DILC18 membrane uptake by neutrophils from CD117-transfected 293 cells)” value (shortened to “EC50 of trogocytosis”) turned out to be 0.64 nM and the “Normalised uptake (B max) in %, ADCT” value worked out at 95.3%.

B4: 3B3 IgA2 anti-CD117 antibody (Example 8) (antibody, V domains shown)
VH: EVQLVESGGGVVQPGRSLRLSCAASGFTFSSYAMHWVRQAPGKGLEWVSVIYSGGSTYYADSVKGRFTISRDNSKNTLYLQMNSLRAEDTAVYYCARDSSGYRGDFDYWGQGTLVTVSS
VL: SYELTQPPSVSVSPGQTASITCSGDKVGAKYVFWYQQKPGQSPVLVVYQDNKRPSGIPERFSGSNSGNTATLTISGTQAMDEADYYCQAWDSSTALYVFGTGTKV
As for B4, in assay [7], the “EC50 of trogocytosis” value is 0.44 nM and the “Normalised uptake (B max) in %, ADCT” value was found to be 51.1%.

B5: 3C2 IgA2 anti-CD117 antibody (Example 8) (antibody, V domains shown)
VH: EVQLAESGGDLVQPGGSLRLSCAASGFTFSSYAMSWVRQAPGKGLEWVSAISGSGGSTYYADSVKGRFTISRDNSKNTLYLQMNSLRAEDTAIYYCARDLRVYAMEAFDIWGQGTMVTVSS
VL: SYELTQDPAVSVALGQTVRITCQGDSLRDYYANWFQQKPGQAPLLVIFYDSDRPSGIPERFSGSNSGNTATLTISRVEAGDEADYYCQAWDSSSDHWVFGGGTKL
For the molecule B5, the “Normalised uptake (B max) in %, ADCT” value in assay [7] amounted to 3.38%.

B6: 3B2 IgA2 anti-CD117 antibody (Example 8) (antibody, V domains shown)
VH: QVQLQESGPGLVKPSETLSLTCTVSGYSISSGYYWGWIRQPPGKGLEWIGSIYHSGSTYYNPSLKSRVTISVDTSKNQFSLKLSSVTAADTAVYYCARVGVRYFDWLLYGAFDIWGQGTMVTVSS
VL: SYELTQPPSVSVSPGQTATITCSGDKLGETYVHWYQHQSGQSPILVVYQDFKRPSGIPERFSGSNSGNTATLTISGTQAMDEADYYCQAWDSSTAVFGGGTKL
As to B6, in assay [7], the “EC50 of trogocytosis” value was found to be 4.51 nM and the “Normalised uptake (B max) in %, ADCT” value was 42.7%.

B7: hu4A2 IgG4 (hu4A2-hKG4p) (antibody)
heavy: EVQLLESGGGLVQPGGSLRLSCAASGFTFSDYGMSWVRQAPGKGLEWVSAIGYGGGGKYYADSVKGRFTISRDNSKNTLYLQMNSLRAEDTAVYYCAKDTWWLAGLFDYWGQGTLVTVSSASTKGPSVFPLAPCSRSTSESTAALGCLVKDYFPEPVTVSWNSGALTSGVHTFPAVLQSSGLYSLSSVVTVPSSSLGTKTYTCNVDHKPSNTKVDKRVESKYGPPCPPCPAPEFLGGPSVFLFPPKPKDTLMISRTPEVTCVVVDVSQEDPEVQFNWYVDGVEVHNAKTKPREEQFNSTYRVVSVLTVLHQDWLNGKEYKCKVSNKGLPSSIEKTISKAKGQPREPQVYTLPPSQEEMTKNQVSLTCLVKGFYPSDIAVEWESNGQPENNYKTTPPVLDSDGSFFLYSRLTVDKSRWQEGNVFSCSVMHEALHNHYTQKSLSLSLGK
light: IVLTQSPGTLSLSPGKRATLSCRASQSVSNSYLAWYQQKPGQPPKLLIYWASTRESGVPDRFSGSGSGTDFTLTISSLQAEDVAVYYCQQYYSTPLTFGGGTKVEIKRTVAAPSVFIFPPSDEQLKSGTASVVCLLNNFYPREAKVQWKVDNALQSGNSQESVTEQDSKDSTYSLSSTLTLSKADYEKHKVYACEVTHQGLSSPVTKSFNRGEC
notes: Human IgG4, kappa
On to B7, for which the binding result in assay [1] is on record as “no binding (tested: 225 nM)”. Moreover, the Kd in assay [3] was 19.9 nM; in assay [4], 43.4 nM; in assay [5], 38.3 nM; in assay [2], 49 nM.

B8: hu3C2 IgG4 (hu3C2-hLG4p) (antibody)
heavy: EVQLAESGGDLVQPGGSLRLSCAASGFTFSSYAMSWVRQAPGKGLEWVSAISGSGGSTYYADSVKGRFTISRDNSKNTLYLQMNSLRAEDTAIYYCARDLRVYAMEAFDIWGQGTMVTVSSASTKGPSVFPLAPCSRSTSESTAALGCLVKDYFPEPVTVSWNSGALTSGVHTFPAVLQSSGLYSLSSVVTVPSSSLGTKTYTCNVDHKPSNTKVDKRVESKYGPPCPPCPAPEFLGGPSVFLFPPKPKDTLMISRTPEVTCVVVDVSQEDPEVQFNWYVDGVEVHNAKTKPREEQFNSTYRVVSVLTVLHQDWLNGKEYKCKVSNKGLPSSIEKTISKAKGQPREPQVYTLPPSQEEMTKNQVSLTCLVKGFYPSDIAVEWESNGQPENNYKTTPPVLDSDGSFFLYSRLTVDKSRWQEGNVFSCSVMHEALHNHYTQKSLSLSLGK
light: SYELTQDPAVSVALGQTVRITCQGDSLRDYYANWFQQKPGQAPLLVIFYDSDRPSGIPERFSGSNSGNTATLTISRVEAGDEADYYCQAWDSSSDHWVFGGGTKLTVLGQPKAAPSVTLFPPSSEELQANKATLVCLISDFYPGAVTVAWKADGSPVKAGVETTKPSKQSNNKYAASSYLSLTPEQWKSHRSYSCQVTHEGSTVEKTVAPTECS
As to B8, in assay [1], the binding result is given as “no binding (tested: 225 nM)”. The molecule also came in with a Kd in assay [2] of 14 nM.

B9: hu3C2 IgA2 (hu3C2-hLhA2 (P221R)) (antibody)
heavy: EVQLAESGGDLVQPGGSLRLSCAASGFTFSSYAMSWVRQAPGKGLEWVSAISGSGGSTYYADSVKGRFTISRDNSKNTLYLQMNSLRAEDTAIYYCARDLRVYAMEAFDIWGQGTMVTVSSASPTSPKVFPLSLDSTPQDGNVVVACLVQGFFPQEPLSVTWSESGQNVTARNFPPSQDASGDLYTTSSQLTLPATQCPDGKSVTCHVKHYTNSSQDVTVPCRVPPPPPCCHPRLSLHRPALEDLLLGSEANLTCTLTGLRDASGATFTWTPSSGKSAVQGPPERDLCGCYSVSSVLPGCAQPWNHGETFTCTAAHPELKTPLTANITKSGNTFRPEVHLLPPPSEELALNELVTLTCLARGFSPKDVLVRWLQGSQELPREKYLTWASRQEPSQGTTTFAVTSILRVAAEDWKKGDTFSCMVGHEALPLAFTQKTIDRLAGKPTHVNVSVVMAEVDGTCY
light: SYELTQDPAVSVALGQTVRITCQGDSLRDYYANWFQQKPGQAPLLVIFYDSDRPSGIPERFSGSNSGNTATLTISRVEAGDEADYYCQAWDSSSDHWVFGGGTKLTVLGQPKAAPSVTLFPPSSEELQANKATLVCLISDFYPGAVTVAWKADGSPVKAGVETTKPSKQSNNKYAASSYLSLTPEQWKSHRSYSCQVTHEGSTVEKTVAPTECS
Turning to B9, the equilibrium dissociation constant (Kd) is 2.44 nM in assay [3], 20.9 nM in assay [4] and 9.3 nM in assay [5]. Besides, the binding result in assay [6] is reported as “no binding (tested: 200 nM (highest CD117 concentration))”.

As a reminder, the Kd is the free concentration of one partner at which half of the binding sites on the other are occupied at equilibrium, for simple one-to-one binding. Read a low Kd as tighter binding.
